Test results published in article PMC10548395.
pKd: −log10 of the molar value.

Molecular target: IQ∼Sec7PH fusion protein of IQSEC3 (not stated (human or rat cDNA cloned)) (UniProt Q9UPP2)
Test: ITC

Sequence of UniProt Q9UPP2 (Q9UPP2 whole entry, looked up, the tested form may be a part): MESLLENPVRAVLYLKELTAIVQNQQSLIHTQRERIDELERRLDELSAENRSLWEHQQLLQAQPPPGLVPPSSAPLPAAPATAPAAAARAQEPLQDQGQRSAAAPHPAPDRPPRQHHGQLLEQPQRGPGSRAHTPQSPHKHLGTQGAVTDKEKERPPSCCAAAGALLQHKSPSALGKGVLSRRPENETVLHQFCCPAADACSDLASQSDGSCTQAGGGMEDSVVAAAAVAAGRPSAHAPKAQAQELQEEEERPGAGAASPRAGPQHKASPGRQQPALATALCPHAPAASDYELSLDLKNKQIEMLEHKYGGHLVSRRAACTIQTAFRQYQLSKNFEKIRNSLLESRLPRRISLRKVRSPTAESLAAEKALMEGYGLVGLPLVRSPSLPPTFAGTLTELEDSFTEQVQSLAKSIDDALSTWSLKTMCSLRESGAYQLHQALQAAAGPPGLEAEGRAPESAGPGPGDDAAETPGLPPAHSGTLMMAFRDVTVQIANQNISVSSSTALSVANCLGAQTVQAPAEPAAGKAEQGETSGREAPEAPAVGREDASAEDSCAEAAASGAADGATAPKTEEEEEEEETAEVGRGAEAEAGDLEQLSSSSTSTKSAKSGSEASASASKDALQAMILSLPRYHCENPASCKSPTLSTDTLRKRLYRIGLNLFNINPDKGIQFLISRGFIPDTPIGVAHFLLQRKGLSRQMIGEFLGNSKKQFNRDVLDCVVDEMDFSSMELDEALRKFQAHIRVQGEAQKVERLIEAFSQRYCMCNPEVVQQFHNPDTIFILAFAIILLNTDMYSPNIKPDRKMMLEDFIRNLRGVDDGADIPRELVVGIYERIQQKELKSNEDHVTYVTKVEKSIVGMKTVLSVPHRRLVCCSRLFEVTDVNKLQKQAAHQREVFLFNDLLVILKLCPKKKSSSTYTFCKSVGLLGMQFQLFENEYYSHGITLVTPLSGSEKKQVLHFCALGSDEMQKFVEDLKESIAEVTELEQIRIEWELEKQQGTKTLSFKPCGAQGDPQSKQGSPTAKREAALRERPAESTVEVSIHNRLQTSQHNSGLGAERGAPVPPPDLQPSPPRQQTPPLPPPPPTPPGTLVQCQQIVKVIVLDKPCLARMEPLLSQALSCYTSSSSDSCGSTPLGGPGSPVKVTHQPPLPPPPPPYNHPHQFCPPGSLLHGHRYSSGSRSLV

“calmodulin (CaM) (from UniProt P0DP25 2-149) (natural protein)” was tested. Which pKd did it give?
The pKd was 9.00.
